The text below walks through data of patent publication US20240309051A1, “[…] T (TFH) CELLS […] TO SARS-COV-2 VIRUS” (priority 2021, published 2024).

Assay [1] relates to T-cell hybridomas expressing TCRs of clonotype 1/2 (clone 1 and clone 2). In kind it is cell-based, human.
Assay [2] has as its system CD4 positive cells and patient-derived B cells immortalized by EBV infection. As to the kind of experiment: Restimulation assay of PBMC by S864-882 peptide, human IL-21 ELISA. In kind it is cell-based. The conditions noted are these: peptide 1 μg/ml; 24 hr; compared with not stimulated.
The target in assay [3] is T1, SARS-COV-2 S protein, S867-881 peptide with residue 5 (T) of SEQ ID NO: 13 replaced with alanine peptide on … (human).
T1 peptide: DEMIAQYASALLAGT
Kind of assay: activation reporter or marker.

For assay [4], the target named is T2, SARS-COV-2 spike (S) protein peptide on HLA-DRA*01:01 / HLA-DRB1*15:01 (human).
T2 peptide: PLLTDEMIAQYTSAL
Kind of assay: activation reporter or marker.

Assay [5] concerns the target T3, SARS-COV-2 spike (S) protein peptide on HLA-DRA*01:01 / HLA-DRB1*15:01 (human).
T3 peptide: PPLLTDEMIAQYTSA
Kind of assay: activation reporter or marker.

The target in assay [6] is T4, SARS-COV-2 spike (S) protein peptide on HLA-DRA*01:01 / HLA-DRB1*15:01 (human).
T4 peptide: LLTDEMIAQYTSALLAGTI
As to the kind of experiment: activation reporter or marker.

In assay [7] the target is T5, SARS-COV-2 spike (S) protein peptide on HLA-DRA*01:01 / HLA-DRB1*15:01 (human).
T5 peptide: DEMIAQYTSALLAGT
Kind of assay: activation reporter or marker.

In assay [8] the target is T6, SARS-COV-2 spike (S) protein peptide on HLA-DRA*01:01 / HLA-DRB1*15:01 (human).
T6 peptide: YTSALLAGTITSGWT
Kind of assay: activation reporter or marker.

The target of assay [9] is T7, SARS-COV-2 spike (S) protein peptide on HLA-DRA*01:01 / HLA-DRB1*15:01 (human).
T7 peptide: AQYTSALLAGTITSG
Kind of assay: activation reporter or marker.

Assay [10] deals with T8, SARS-COV-2 spike (S) protein peptide on HLA-DRA*01:01 / HLA-DRB1*15:01 (human).
T8 peptide: LPPLLTDEMIAQYTS
Kind of assay: activation reporter or marker.

Assay [11] deals with T9, SARS-COV-2 spike (S) protein peptide on HLA-DRA*01:01 / HLA-DRB1*15:02 (human).
T9 peptide: LLTDEMIAQYTSALLAGTI
As to the kind of experiment: activation reporter or marker.

Turning to “S864-882: peptide of positions 864-882 of the SARS-CoV-2 S protein, epitope of clones 1 and 2”, the “stimulation of clones 1 and 2, CD69 expression” value in assay [1] (APC from an individual who has DRB1*15:02 but not DRB1*15:01) was “able to stimulate both clones 1 and 2”. In addition, in [1] (single peptide 1 μg/ml, 20 hr, in the presence of APC), the “epitope determination by stimulating clones 1 and 2 with single synthesized peptide, CD69” value was “determined as an epitope for both clones 1 and 2”. For the same molecule, the “concentration of IL-21 in the medium” value in assay [2] is reported as “higher”.

B1: Clone 1 (TCR-017) (TCR)
alpha TRAV12-1 TRAJ12 CDR3: CVVNRGSSYKLIF
beta TRBV11-2 TRBJ2-7 CDR3: CASSQTYEQYF
As to B1, the binding result is “no recognition” in assay [3]; “no recognition” in assay [4]; “no recognition” in [5]; “recognises” in assay [6]; “recognises” in assay [7]; “no recognition” in [8]. The binding result in assay [9] was “no recognition”; in [10], “no recognition”; in assay [11], “recognises”.
